From article PMC5889325 (Molecular cell, 2018)

Legend:
[1] = target: the molecule itself; assay: negative-stain EM reconstruction
[2] = target: amino-terminal poly-histidine-tagged Cas4 (Bacillus halodurans type I-C), co-expressed with untagged Cas1 (Bacillus halodurans); assay: negative-stain EM reconstruction

stoichiometry N (Cas1 per complex) [2]: 4 | stoichiometry N (Cas4 per complex) [2]: 2
B1: untagged Cas1 (Bacillus halodurans type I-C), co-expressed with His6-Cas4 (natural protein, UniProt Q9KFX9 1-343, looked up)
chain: MKKLLNTLYVTQPDTYLSLDGDNVVLLKEQEKLGRLPLHNLEAIVGFGYTGASPALMGYCAERNISITFLTKNGRFLARVVGESRGNVVLRKTQYRISENDQESTKIARNFITGKVYNSKWMLERMTREHPLRVNVEQFKATSQLLSVMMQEIRNCDSLESLRGWEGQAAINYNKVFDQMILQQKEEFAFHGRSRRPPKDNVNAMLSFAYTLLANDVAAALETVGLDAYVGFMHQDRPGRASLALDLMEELRGLYADRFVLSLINRKEMTADGFYKKENGAVLMTDEARKTFLKAWQTKKQEKITHPYLGEKMSWGLVPYVQALLLARFLRGDLDEYPPFLWK
binding result [1]: binds
